Assay results taken from paper PMC3834884, “A fully caninised anti-NGF monoclonal antibody for pain relief in dogs” (BMC Veterinary Research, 2013).

B1: NV-01 (caN2-HCA1-kLC1), fully caninised anti-NGF monoclonal antibody (antibody, V domains shown)
VH: EVQLVESGGGLVQPGGSLRLSCVASGFSLTNNNVNWVRQAPGKGLEWVGGVWAGGATDYNSALKSRFTISRDNAKNTVFLQMHSLRSEDTAVYYCARDGGYSSSTLYAMDAWGQGTSVTVSS
VL: DIVMTQSPASLSLSQGETVTITCRASEDIYNALAWYQQKPGQAPKLLIYNTDTLHTGVPSRFSGSGSGTDFSLTISSLEPEDVAVYYCQHYFHYPRTFGQGTKVELK
notes: caN2 heavy chain variable domain (caninised rat alphaD11 VH, modified framework); caninised alphaD11 light chain variable domain (caN-kLC1); canine kappa light chain constant domain; Canine IgG-A, kappa; also called caninised anti-NGF mAb; copies: 2 + 2
B2: caN-HCB2 + kLC1, caninised anti-NGF antibody with canine IgG heavy chain isotype B (antibody, V domains shown)
VH: EVQLVESGGDLVNPGGTLTLSCVVSGFSLTNNNVNWVRQALGRGLEWVGGVWAGGATDYNSALKSRLTITRDTSKSTVFLKMHSLQSEDTATYYCARDGGYSSSTLYAMDAWGQGTLVTVSS
VL: B1 VL
notes: caN heavy chain variable domain (first caninised alphaD11 VH); as the light chain variable domain of m1 (caN-kLC1); canine kappa light chain constant domain; Canine IgG-B, kappa; also called caN-HCB-kLC; type B anti-NGF antibody; source: CHO cells, transient transfection, supernatant; purified on protein A
B3: caN-HCA1 + kLC1, caninised anti-NGF antibody with canine IgG heavy chain isotype A (antibody, V domains shown)
VH: B2 VH
VL: B1 VL
notes: caN heavy chain variable domain (first caninised alphaD11 VH); as the light chain variable domain of m1 (caN-kLC1); canine kappa light chain constant domain; Canine IgG-A, kappa; also called caN-HCA + kLC; type A anti-NGF antibody; source: CHO cells, transient transfection, supernatant; purified using Protein L
B4: caN-HCC1 + kLC1, caninised anti-NGF antibody with canine IgG heavy chain isotype C (antibody, V domains shown)
VH: B2 VH
VL: B1 VL
notes: caN heavy chain variable domain (first caninised alphaD11 VH); as the light chain variable domain of m1 (caN-kLC1); canine kappa light chain constant domain; Canine IgG-C, kappa; also called caN-HCC-kLC; type C anti-NGF antibody; source: CHO cells, transient transfection, supernatant; purified on Protein G
B5: caN-HCD2 + kLC1, caninised anti-NGF antibody with canine IgG heavy chain isotype D (antibody, V domains shown)
VH: B2 VH
VL: B1 VL
notes: caN heavy chain variable domain (first caninised alphaD11 VH); as the light chain variable domain of m1 (caN-kLC1); canine kappa light chain constant domain; Canine IgG-D, kappa; also called caN-HCD + kLC; ca-HCD2 + kLC1; source: CHO cells, transient transfection, supernatant; purified using Protein L

Key:
[1] = target: T1, mouse nerve growth factor (muNGF) (Mus musculus, UniProt P01139); experiment: SPR; ProteOn XPR36, GLM chip; muNGF amine-coupled (50 ug/mL, sodium acetate pH 4.5); NV-01 passed over at 500, 250, 125, 62.5 and 31.25 nM for 60 s; Langmuir fit; conditions: both partners purified
T1 construct: mouse beta nerve growth factor; also called mouse NGF; murine NGF; source: bought: Biosensis (purified mouse NGF)

[2] = target: T1, mouse nerve growth factor (muNGF); experiment: cell-based or functional assay
[3] = target: T2, canine nerve growth factor with a C-terminal poly-His tag (Canis lupus familiaris, UniProt A0A8I3PYI3); experiment: ELISA; plates coated with NGF (0.1 ug/ml muNGF; canine NGF in Figure 2A), blocked with 5% BSA/PBS; CHO cell supernatants with canine anti-NGF IgG 1 h at room temperature in PBS/1% BSA; detected with rabbit anti-canine IgG-HRP; conditions: one partner purified
T2 construct: canine beta NGF, expressed from a cDNA that encodes canine pre-pro beta NGF; the mature form is surmised; also called canine NGF; caNGF; source: HEK293 cells, transient transfection, purified from supernatant (Ni-HiTrap); not shown: poly-His, C-terminal, kept

[4] = target: T1, mouse nerve growth factor (muNGF); experiment: as above; conditions: one partner purified

T1 sequence (P01139 122-241): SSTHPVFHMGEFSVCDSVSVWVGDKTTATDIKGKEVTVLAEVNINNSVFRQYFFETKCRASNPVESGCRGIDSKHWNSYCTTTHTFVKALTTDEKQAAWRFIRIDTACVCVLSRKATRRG

Binder	Kd [1]	IC50 of inhibition of NGF-induced proliferation of TF-1 cells (1 ng/ml NGF; NV-01 2.5 ng/ml to 0.002 ng/ml); blocked: NGF and its receptor on TF-1 cells [2]	binding result [3]	binding result [4]
B1	< 1 pM	0.02 ng/mL		
B2			binds	binds
B3				binds
B4				binds
B5				binds
